From patent US20220073604A1 (ARGENX BVBA, published 2022)
Values belong to the molecule of their own block, whether it stands above or below them.

Experiments:
[1] = biological target: human IL-6 (as added in the B9 and 7TD1 bioassays) (human) (UniProt P05231)
[2] = biological target: human IL-6 (as added in the B9 and 7TD1 bioassays) (human) (UniProt P05231); assay: cell-based or functional assay
[3] = biological target: human IL-6 (as added in the B9 and 7TD1 bioassays) (human) (UniProt P05231); assay: cell-based or functional assay; remark: listed apart in the source
[4] = biological target: T1, human IL-6 (as added in the B9 and 7TD1 bioassays) (human, UniProt P05231 30-212); assay: cell-based or functional assay
[5] = biological target: T1, human IL-6 (as added in the B9 and 7TD1 …); assay: cell-based or functional assay; remark: listed apart in the source
[6] = biological target: T1, human IL-6 (as added in the B9 and 7TD1 …); assay: cell-based or functional assay; remark: listed apart in the source
[7] = biological target: T2, bacterially produced human IL-6 (human, UniProt P05231 30-212); assay: SPR; purified Fab
T2 construct: also called bactIL-6; prokaryotic IL-6

[8] = biological target: T3, eukaryotically produced human IL-6 (human, UniProt P05231 30-212); assay: SPR; purified Fab
T3 construct: also called eukIL-6; Euk IL-6

[9] = biological target: T2, bacterially produced human IL-6; assay: SPR; periplasmic fraction
Description: (§1) From the washing phase the off-rate (kd) was determined, while from the injection phase the on-rate (ka) was calculated using the concentration and off-rate as parameters.

[10] = biological target: T3, eukaryotically produced human IL-6; assay: SPR; periplasmic fraction
Description: as §1

[11] = biological target: T2, bacterially produced human IL-6; assay: SPR; purified Fab; ratio bact to euk IL-6
[12] = biological target: T2, bacterially produced human IL-6; assay: SPR; purified Fab; IL-6 coated on CM5 chip
Description: as §1

[13] = biological target: T3, eukaryotically produced human IL-6; assay: SPR; purified Fab; IL-6 coated on CM5 chip
Description: as §1

[14] = biological target: T2, bacterially produced human IL-6; assay: SPR; periplasmic fraction; ratio bact to euk IL-6
Description: as §1

human IL-6 = biological target: T4, human IL-6 (human, UniProt P05231 30-212); assay: SPR; periplasmic fraction; average of the IL-6 channels; set-up: unit not given here
T4 construct: Used where the text says only IL-6 or human IL-6 (crystals: rh IL-6 from Immunotools; cell assays) and for values averaged over the bacterial and eukaryotic IL-6 channels; also called interleukin-6; rh IL-6

[15] = biological target: T2, bacterially produced human IL-6; assay: SPR; purified Fab over biotinylated IL-6 on streptavidin chip
Description: as §1

[16] = biological target: T2, bacterially produced human IL-6; assay: SPR; purified Fab; remark: listed apart in the source
[17] = biological target: T3, eukaryotically produced human IL-6; assay: SPR; purified Fab; remark: listed apart in the source
cynomolgus monkey IL-6 [18] = biological target: T5, cynomolgus monkey IL-6 (cynomolgus monkey, UniProt P79341 28-212, limits assumed); assay: SPR; purified Fab
T5 construct: also called HIS-cyIL-6

[19] = biological target: T2, bacterially produced human IL-6; assay: SPR; purified Fab, 68 nM
[20] = biological target: T3, eukaryotically produced human IL-6; assay: SPR; purified Fab, 68 nM
cynomolgus monkey IL-6 [21] = biological target: T5, cynomolgus monkey IL-6; assay: SPR; purified Fab, 68 nM
[22] = biological target: T1, human IL-6 (as added in the B9 and 7TD1 …); assay: cell-based or functional assay; remark: listed apart in the source
[23] = biological target: IL-6 (bact-hIL-6, euk-hIL-6 and bact-cy IL-6; 'average binding' of Table 21); assay: average binding level in the off-rate screen (unit not given; n = 2)
[24] = biological target: T6, bacterially produced cynomolgus monkey IL-6 (cynomolgus monkey, UniProt P79341 28-212, limits assumed); assay: off-rate of Fab 111A7 variant on bact-cy IL-6 (binding kinetics, SPR presumed; n = 2)
T6 construct: also called bact-cy IL-6; HIS-cyIL-6

[25] = biological target: IL-6 (bact-hIL-6, euk-hIL-6 and bact-cy IL-6; 'average binding' of Table 21); assay: average binding level in the off-rate screen (unit not given; n = 5)
[26] = biological target: T6, bacterially produced cynomolgus monkey …; assay: off-rate of Fab 111A7 variant on bact-cy IL-6 (binding kinetics, SPR presumed; n = 5)

Molecule: CNTO136 (benchmark anti-IL-6 antibody, humanized variant of CNTO328)
IC50 (read off the curve), B9 cell proliferation [1]: 0.2 pM
IC50, 7TD1 cells [2]: 0.19 pM
Potency relative to 68F2, 7TD1 cells [2]: 3.49

B1: B-E8 (IL-6 neutralizing benchmark antibody) (antibody, from another filing, V domains shown)
VH: QVTLKESGPGILKPSQTLSLTCSFSGFSLSTSGMGVGWIRQPSGKGLEWLAHIWWDDDKYYNPSLKSQLTISKDTSRNQVFLKITSVDTADTATYYCARSYDDYLYYALDYWGQGTSVTVSS
VL: DIVMTQSPATLSVTPGDRVSLSCRASQSISDYLHWYQQKSHESPRLLIKSVSQSISGIPSRFSGSGSGSDFTLSINSVEPEDVGVYYCQNGHSFPLTFGAGTKLELK
IC50 (read off the curve), B9 cell proliferation [1]: 8 pM
IC 50, B9 cell proliferation [3]: 5.11 pM
Rel. potency, B9 cells [3]: 0.2

B2: 61H7 (antibody, V domains shown)
VH: EVQLVESGGGLVQPGGSLRLSCAASGFTFSSYRMYWVRQPPGKGLEWVSAISAGGGSTYYGDSVKGRFTISRDNAKNTVYLQMNSLKPEDTAVYYCANRAGWGMGDYWGQGTQVTVSS
VL: QTVVTQEPSLSVSPGGTVTLTCGLSSGSVTASNYPGWFQQTPGQAPRALIYSTNDRHSGVPSRFSGSISGNKAALTITGAQPEDEADYYCALDIGDITEFGGGTHLTVLG
IC 50, B9 cell proliferation (batch 12.8) [4]: 1.83 pM
IC 50, B9 cell proliferation (batch A8.11) [4]: 1.57 pM
IC50, 7TD1 cells (batch A8.11) [5]: 3.48 pM
Potency relative to 68F2, 7TD1 cells (batch A8.11) [5]: 0.19
IC50 (read off the curve), B9 cell proliferation [6]: ~1 pM

B3: Fab 24D10 (Fab, V domains shown)
VH: QLQVVESGGGLVQPGGSLRLSCAASGFTFSSYAMSWVRQAPGKGPEWVSRISSGGGSTSYADSVKGRFTISRDNAKNTLYLQMNSLKPEDTAVYYCANRAGWGMGDYWGQGTQVTVSS
VL: QTVVTQEPSLSVSPGGTVTLTCGLSSGSVTASNYPGWFQQTPGQAPRALIYSTNDRHSGVPSRFSGSISGNKAALTITGAQPEDEADYYCALDIGDITEFGGGTHLTVLG
notes: Fab; also called pur24d10; 28f12(24D10)
koff [7]: 0.000143 s⁻¹
koff [8]: 0.000125 s⁻¹
koff [9]: 0.000183 s⁻¹
koff [10]: 0.000144 s⁻¹
ratio bact/euk [11]: 1.14
Kd [12]: 1200 pM
koff [12]: 0.00019 s⁻¹
Kd [13]: 850 pM
koff [13]: 0.00017 s⁻¹
ratio bact/euk [14]: 1.09
average binding (human IL-6): 167
Ka [15]: 3.7e+09 M⁻¹
Kd [15]: 270 pM
koff [15]: 1.69e-05 s⁻¹
kon [15]: 62700 M⁻¹ s⁻¹

B6: 129D3 (germlined variant of 68F2), full-length IgG1 (antibody, V domains shown)
VH: EVQLQESGPGLVKPSQTLSLTCTVSGGSITSRYYAWSWIRQPPGKGLEWIGVIDYDGDTYYSPSLKSRVSISWDTSKNQFSLKLSSVTPADTAVYYCARDPDVVTGFHYDYWGQGTMVTVSS
VL: QSALTQPPSVSGTPGQSVTISCAGANNDIGTYAYVSWYQQLPGTAPKLMIYKVTTRASGIPDRFSGSKSGNTASLTISGLQAEDEADYYCASYRNFNNAVFGTGTKLTVL
IC50, 7TD1 proliferation assay, exp 22.06 [22]: 0.791 pM
IC50, 7TD1 proliferation assay, exp 29.06 [22]: 0.574 pM
Rel. Potency, 7TD1, exp 29.06 [22]: 0.98
IC50, 7TD1 cells (129D3#A1.1) [5]: 0.25 pM
IC50, 7TD1 cells (129D3U#15.1) [5]: 0.23 pM
Potency relative to 68F2, 7TD1 cells (129D3#A1.1) [5]: 2.65
Potency relative to 68F2, 7TD1 cells (129D3U#15.1) [5]: 2.91
IC50 (read off the curve), B9 cell proliferation [6]: ~0.06 pM

More lines, now with the values ahead:

koff [7]: 4.22e-05 s⁻¹
koff [8]: 3.68e-05 s⁻¹
ratio bact/euk [11]: 1.13
B4: Fab 61H7 (Fab, V domains shown)
VH: EVQLVESGGGLVQPGGSLRLSCAASGFTFSSYRMYWVRQPPGKGLEWVSAISAGGGSTYYGDSVKGRFTISRDNAKNTVYLQMNSLKPEDTAVYYCANRAGWGMGDYWGQGTQVTVSS
VL: QTVVTQEPSLSVSPGGTVTLTCGLSSGSVTASNYPGWFQQTPGQAPRALIYSTNDRHSGVPSRFSGSISGNKAALTITGAQPEDEADYYCALDIGDITEFGGGTHLTVLG
notes: Fab; also called pur61H7; 61H7 Fab

Kd [16]: 43000 pM
koff [16]: 0.0012 s⁻¹
Kd [17]: 6000 pM
koff [17]: 0.00072 s⁻¹
Kd (cynomolgus monkey IL-6 [18]): 620 pM
koff (cynomolgus monkey IL-6 [18]): 0.0007 s⁻¹
Kd [19]: 19000 pM
koff [19]: 0.00088 s⁻¹
Kd [20]: 14000 pM
koff [20]: 0.00077 s⁻¹
Kd (cynomolgus monkey IL-6 [21]): 14000 pM
koff (cynomolgus monkey IL-6 [21]): 0.00078 s⁻¹
Kd [12]: 43000 pM
koff [12]: 0.0012 s⁻¹
Kd [13]: 6000 pM
koff [13]: 0.00072 s⁻¹
B5: Fab 17F10 (Fab, V domains shown)
VH: EVQLQESGPGLVKPSQTLSLTCTVSGGSIATSYYAWSWIRQPPGKGLEWMGVIDYDGDTYYKPSLKSRTSISRDTSKNQFSLQLSSVTPEDTAVYYCARAGLGDSYYLGTYYAMDYWGKGTLVTVSS
VL: QAGLTQPPSVSGSPGKTVTISCAGTTSDVGTGNFVSWYQQLPGMAPKLLIYDVNKRASGIADRFSGSKSGNTASLTISGLQSEDEADYYCASYRSLNNVVFGGGTHLTVLG
notes: Fab; also called 17F10 pur Fab 68 nM

average binding [23]: 130
koff [24]: 0.000144 s⁻¹
B7: Fab 111A7 with the CDR3 methionine changed to T (Fab, V domains shown)
VH: EVQLLESGGGLVQPGGSLRLSCAASGFTFSSYAMSWVRQAPGKGPEWVSRISAGGGSTYYGDSVKGRFTISRDNSKNTLYLQMNSLRAEDTAVYYCANRAGWGTGDYWGQGTLVTVSS
VL: QTVVTQEPSFSVSPGGTVTLTCGLSSGSVTASNYPGWYQQTPGQAPRALIYSTNDRHSGVPDRFSGSISGNKAALTITGAQAEDEADYYCALDIGDITEFGGGTQLTVL

average binding [23]: 163
koff [24]: 0.000242 s⁻¹
B8: Fab 111A7 with the CDR3 methionine changed to V (Fab, V domains shown)
VH: EVQLLESGGGLVQPGGSLRLSCAASGFTFSSYAMSWVRQAPGKGPEWVSRISAGGGSTYYGDSVKGRFTISRDNSKNTLYLQMNSLRAEDTAVYYCANRAGWGVGDYWGQGTLVTVSS
VL: QTVVTQEPSFSVSPGGTVTLTCGLSSGSVTASNYPGWYQQTPGQAPRALIYSTNDRHSGVPDRFSGSISGNKAALTITGAQAEDEADYYCALDIGDITEFGGGTQLTVL

average binding [25]: 66
koff [26]: 0.000899 s⁻¹
B9: Fab 111A7 with the CDR3 methionine changed to P (Fab, V domains shown)
VH: EVQLLESGGGLVQPGGSLRLSCAASGFTFSSYAMSWVRQAPGKGPEWVSRISAGGGSTYYGDSVKGRFTISRDNSKNTLYLQMNSLRAEDTAVYYCANRAGWGPGDYWGQGTLVTVSS
VL: QTVVTQEPSFSVSPGGTVTLTCGLSSGSVTASNYPGWYQQTPGQAPRALIYSTNDRHSGVPDRFSGSISGNKAALTITGAQAEDEADYYCALDIGDITEFGGGTQLTVL
